# In article PMC11508082:
# Target: T1, PdhR-his (Escherichia coli O157:H7 (EHEC) TUV93-0?) (UniProt P0ACM1)
# T1 sequence: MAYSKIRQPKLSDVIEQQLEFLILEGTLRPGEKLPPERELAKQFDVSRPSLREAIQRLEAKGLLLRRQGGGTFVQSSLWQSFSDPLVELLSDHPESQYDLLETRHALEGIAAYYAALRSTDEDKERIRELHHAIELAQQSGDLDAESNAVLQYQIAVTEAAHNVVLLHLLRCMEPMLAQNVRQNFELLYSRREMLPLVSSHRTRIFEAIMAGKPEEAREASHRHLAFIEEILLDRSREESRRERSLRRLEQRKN
# Assay: EMSA
row,Sequence,binding
1,GGTTCCGATAGAAAGTCCTGGAACAACCGGACCAAAAAGAAAAACCTACCGAGTTGGTAATGGTATTGTGGGACAGTCTAATATCTGGAACGAAATGATCATGAGGCGGAAAAAGGAGAGTTA (double strand) [grlA promoter probe],no binding
2,TGTGCACAGTTTCATGATTTCAATCAAAACCTGTATGGACATAAGGTGAATACTTTGTTACTTTAGCGTCACAGACATGAAATTGGTAAGACCAATTGACTTCGGCAAGTGGCTTAAGACAGGAACTCATGGCCTACAGCAAAATCCGCCAACCAAAACTCTCCGATGTGATTGAGCAGC (double strand) [PpdhR promoter probe],binds
